T1: Cc78 (Caulobacter crescentus NA1000, UniProt B8GW92 1-78, del79-82)
T1 sequence: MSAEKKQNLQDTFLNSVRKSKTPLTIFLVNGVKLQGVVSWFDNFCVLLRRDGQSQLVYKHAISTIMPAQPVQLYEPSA


Key:
EcCc Hfq [1] = molecular target: T2, EcCc Hfq (Escherichia coli / Caulobacter …, UniProt P0A6X3 1-67+B8GW92:71-82, internal_change); experiment: EMSA; Hill n 5.1; EMSA: 34 mM Tris-HCl pH 7.5, 50 mM NaCl, 50 mM KCl, 50 mM NH4Cl, 11.4 mM EDTA, 12% glycerol, 30 C, 30 min, ~1 nM 32P-RNA, Kd in Hfq6; anisotropy: 10 mM Tris-HCl; settings: protein: recombinant; tags: untagged; chain copies: 6; label: 32P; stem-loops
Ec Hfq (Hfq102) [2] = molecular target: T3, Ec Hfq (Hfq102) (Escherichia coli, UniProt P0A6X3 1-102); experiment: EMSA; Hill n 8.2; Tris-glycine gel; EMSA: 34 mM Tris-HCl pH 7.5, 50 mM NaCl, 50 mM KCl, 50 mM NH4Cl, 11.4 mM EDTA, 12% glycerol, 30 C, 30 min, ~1 nM 32P-RNA, Kd in Hfq6; anisotropy: 10 mM Tris-HCl; settings: protein: recombinant; tags: untagged; chain copies: 6; label: 32P; stem-loops
Ec65 [3] = molecular target: T4, Ec65 (Escherichia coli, UniProt P0A6X3 1-65, del66-102); experiment: EMSA; Hill n 1.0; EMSA: 34 mM Tris-HCl pH 7.5, 50 mM NaCl, 50 mM KCl, 50 mM NH4Cl, 11.4 mM EDTA, 12% glycerol, 30 C, 30 min, ~1 nM 32P-RNA, Kd in Hfq6; anisotropy: 10 mM Tris-HCl; settings: protein: recombinant; tags: untagged; chain copies: 6; label: 32P; stem-loops
Cc78 [4] = molecular target: T1, Cc78; experiment: EMSA; Hill n 1.3; EMSA: 34 mM Tris-HCl pH 7.5, 50 mM NaCl, 50 mM KCl, 50 mM NH4Cl, 11.4 mM EDTA, 12% glycerol, 30 C, 30 min, ~1 nM 32P-RNA, Kd in Hfq6; anisotropy: 10 mM Tris-HCl; settings: protein: recombinant; tags: untagged after self-cleaved intein; chain copies: 6; label: 32P; stem-loops
Ec65 [5] = molecular target: T4, Ec65; experiment: EMSA; Hill n 1.6; EMSA: 34 mM Tris-HCl pH 7.5, 50 mM NaCl, 50 mM KCl, 50 mM NH4Cl, 11.4 mM EDTA, 12% glycerol, 30 C, 30 min, ~1 nM 32P-RNA, Kd in Hfq6; anisotropy: 10 mM Tris-HCl; settings: protein: recombinant; tags: untagged; chain copies: 6; label: 32P; stem-loops
EcCc Hfq [6] = molecular target: T2, EcCc Hfq; experiment: as above; settings: protein: recombinant; tags: untagged; chain copies: 6; label: 32P; stem-loops
Cc78 [7] = molecular target: T1, Cc78; experiment: EMSA; Hill n 1.4; EMSA: 34 mM Tris-HCl pH 7.5, 50 mM NaCl, 50 mM KCl, 50 mM NH4Cl, 11.4 mM EDTA, 12% glycerol, 30 C, 30 min, ~1 nM 32P-RNA, Kd in Hfq6; anisotropy: 10 mM Tris-HCl; settings: protein: recombinant; tags: untagged after self-cleaved intein; chain copies: 6; label: 32P; stem-loops
Ec Hfq (Hfq102) [8] = molecular target: T3, Ec Hfq (Hfq102); experiment: EMSA; Hill n 1.0; Tris-glycine gel; EMSA: 34 mM Tris-HCl pH 7.5, 50 mM NaCl, 50 mM KCl, 50 mM NH4Cl, 11.4 mM EDTA, 12% glycerol, 30 C, 30 min, ~1 nM 32P-RNA, Kd in Hfq6; anisotropy: 10 mM Tris-HCl; settings: protein: recombinant; tags: untagged; chain copies: 6; label: 32P; stem-loops

Row | Binder | Kd (EcCc Hfq [1]) [nM] | Kd (Ec Hfq (Hfq102) [2]) [nM] | Kd (Ec65 [3]) [nM] | Kd (Cc78 [4]) [nM] | Kd (Ec65 [5]) [nM] | Kd (EcCc Hfq [6]) [nM] | Kd (Cc78 [7]) [nM] | Kd (Ec Hfq (Hfq102) [8]) [nM]
1 | R157 (structured_RNA) RNA: GGUGAGGCGCCGAGCGCCUCUGCCCUUCCUGGGCGUUUCCUCCCUAUGACUUUGUAGCCCGGUCUUCAUGGCCGGGCUUUCUUUUU | 55.7 ± 2.7 | 14.3 ± 0.1 | 6.3 ± 1.1 | 349 ± 7 |  |  |  | 
2 | ChvR (structured_RNA) RNA: GGCGGGGCCUACAUGUCGCGCAAGUCUCCGGAGGGCCAUUCCGAGGCGGGGCCCGCUCCAGCGUCCUCAUUGGAGCGGGCGUCU |  |  |  |  | 20.2 ± 0.3 | 228 ± 84 | 256 ± 25 | 17.2 ± 1

Source: publication PMC6561178, “Caulobacter crescentus Hfq structure reveals a conserved mechanism of RNA annealing regulation”
